Biological target: Leminorella grimontii GatC (Leminorella grimontii)
Test: crystal structure

Work on “Leminorella grimontii GatC (natural protein)” yielded a stoichiometry N of 2.

— paper doi:10.1101/2025.04.02.646771
